We go through 4 substances from patent publication US20220402979A1.

As a reminder, the Kd is the constant that tells how readily two partners part at equilibrium.

In test [1] the target is recombinant human mis-disordered tau protein (tau151-391/4R) (human) (UniProt P10636). Description: reference line in the plot 'Affinity against pathological tau', axis KD (nM); SPR (Example 10).
The target in test [2] is Human Tau2N4R. Nature of the test: SPR; literature table, Jadhav et al. 2019; AFFINITY 'nd.'. (In general: In SPR one partner is held on a chip, and binding of the other changes the refractive index at the surface.)
Chain of Human Tau2N4R (single chain, as listed by the source limits assumed): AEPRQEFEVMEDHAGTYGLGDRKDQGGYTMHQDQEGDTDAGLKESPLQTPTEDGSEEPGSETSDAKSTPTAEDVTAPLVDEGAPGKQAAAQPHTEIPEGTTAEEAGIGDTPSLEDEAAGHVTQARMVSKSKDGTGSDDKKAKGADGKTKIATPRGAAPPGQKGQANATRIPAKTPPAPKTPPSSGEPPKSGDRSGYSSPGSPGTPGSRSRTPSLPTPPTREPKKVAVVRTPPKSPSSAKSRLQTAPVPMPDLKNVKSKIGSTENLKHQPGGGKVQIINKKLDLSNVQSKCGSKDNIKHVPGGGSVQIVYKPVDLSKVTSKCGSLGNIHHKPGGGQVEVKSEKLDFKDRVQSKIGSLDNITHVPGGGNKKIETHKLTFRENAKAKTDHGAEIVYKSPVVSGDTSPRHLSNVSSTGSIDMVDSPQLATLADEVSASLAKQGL

Chain of recombinant human mis-disordered tau protein (tau151-391/4R) (human) (P10636 468-708): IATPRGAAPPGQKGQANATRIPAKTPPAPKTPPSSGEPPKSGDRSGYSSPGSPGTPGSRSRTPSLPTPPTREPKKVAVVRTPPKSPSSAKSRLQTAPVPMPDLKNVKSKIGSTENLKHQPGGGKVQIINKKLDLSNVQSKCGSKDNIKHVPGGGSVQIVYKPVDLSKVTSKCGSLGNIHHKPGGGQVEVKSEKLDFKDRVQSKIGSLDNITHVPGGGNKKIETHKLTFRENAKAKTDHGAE

For the substance AADvac2, the dissociation constant Kd in test [1] was found to be 0.4 nM. In the case of HJ8.5 (antibody), the AVIDITY in test [2] amounted to 0.4 pM. Take HJ9.3 (antibody): in test [2], the AVIDITY was 100 pM. With HJ9.4 (antibody), the AVIDITY in test [2] amounted to 7000 pM.
